Test results: article PMC12843318, “Zinc-Finger 5 Is an Activation Domain in the Saccharomyces cerevisiae Stress-Responsive Transcription Factor Fzf1”

What was measured:
Fzf1 = target: T1, Fzf1 (Saccharomyces cerevisiae, UniProt P32805 1-299); assay: EMSA; poly dI-dC, BSA; EMSA: 0.1 pmol dsDNA probe, 2 ng BSA, 0.5 ug poly dI-dC (added after incubation), EMSA binding buffer (composition, salt and pH not given), 20 min on ice, 6% native PAGE; protein 0-150 nM; conditions: protein: recombinant; tags: GST fusion from pGEX-6p-1 (pGEX-FZF1); tag removal by PreScission described only for N117; blunt
T1 sequence: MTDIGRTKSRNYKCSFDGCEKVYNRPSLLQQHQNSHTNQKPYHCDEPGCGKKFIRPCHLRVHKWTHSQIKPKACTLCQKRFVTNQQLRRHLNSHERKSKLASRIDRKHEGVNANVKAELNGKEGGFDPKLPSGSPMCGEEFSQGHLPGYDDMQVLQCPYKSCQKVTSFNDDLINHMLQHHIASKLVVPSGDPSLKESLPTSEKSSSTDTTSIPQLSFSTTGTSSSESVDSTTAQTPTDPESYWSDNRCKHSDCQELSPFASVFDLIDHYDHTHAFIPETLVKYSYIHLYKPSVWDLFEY

Fzf1-N117 = target: T2, Fzf1-N117 (Saccharomyces cerevisiae, UniProt P32805 1-117); assay: as above; conditions: protein: recombinant; tags: N-terminal GST removed by PreScission protease; blunt
T2 sequence: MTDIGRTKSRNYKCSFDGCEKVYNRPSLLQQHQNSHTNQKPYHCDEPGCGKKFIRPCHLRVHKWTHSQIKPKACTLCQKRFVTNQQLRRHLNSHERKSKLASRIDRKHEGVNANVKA

B1: SSU1-CS2 (dsDNA)
DNA 1: GAAAAAAAAATGATAGTTTGCAGGAAG
DNA 2: CTTCCTGCAAACTATCATTTTTTTTTC
- Kd (Fzf1): ~35 nM
- Kd (Fzf1-N117): ~30 nM
